Data from patent US7838294B2, “Inhibitors of the JNK signal transduction pathway and methods of use” (University of Massachusetts, priority 1997, dated 2010).

How the values were obtained:
c-Myc activation domain = assay: GAL4 luciferase reporter assay in CHO cells: c-Myc activation domain; format: cell-based, Chinese hamster; conditions: 48 hours post-transfection, FIG. 4A
Protocol: (§1) In these experiments, CHO cells were cotransfected with constructs encoding the transcription factors and JIP-1 using previously described methods. Dérijard et al., supra; Sluss et al., supra; Gupta et al., supra. A luciferase reporter plasmid was used to monitor the expression of the transcription factors. Transfection efficiency was determined using a β-galactosidase expression vector. Constructs used in these experiments included GAL4 fusions with the c-myc, Sp1 and VP16 activation domains (described in Whitmarsh et al., Science, 269:403 (1995); Davis, Science, 269:403 (1995); Gille et al., Curr. Biol., 5:1191 (1995)). […]
(§2) Transfected cells were activated by treatment with 10% (v/v) fetal calf serum, and luciferase and β-galactosidase activities were measured in cell lysates at 48 hours post-transfection. The data are presented as the ratio of luciferase activity (light units) to β-galactosidase activity (OD units) measured in the cell extracts (mean±SEM (n=3)), and are normalized to the luciferase activity detected in the absence of JBD (FIGS. 4A and 4B) or ATF2 (FIG. 4C).

E1a activation domain = assay: GAL4 luciferase reporter assay in CHO cells: E1a activation domain; format: cell-based, Chinese hamster; conditions: 48 hours post-transfection, FIG. 4A
Sp1 activation domain = assay: GAL4 luciferase reporter assay in CHO cells: Sp1 activation domain; format: cell-based, Chinese hamster; conditions: 48 hours post-transfection, FIG. 4A
Protocol: as §1, §2

VP16 activation domain = assay: GAL4 luciferase reporter assay in CHO cells: VP16 activation domain; format: cell-based, Chinese hamster; conditions: 48 hours post-transfection, FIG. 4A
Protocol: as §1, §2

[1] = system: ATF2 transcriptional activity; assay: GAL4 luciferase reporter assay in CHO cells: GAL4-ATF2; format: cell-based, Chinese hamster; conditions: GAL4-ATF2 reporter, CHO cells, FIG. 4C
Protocol: In these experiments, CHO cells were cotransfected with constructs encoding the transcription factors and JIP-1 using previously described methods. Dérijard et al., supra; Sluss et al., supra; Gupta et al., supra. A luciferase reporter plasmid was used to monitor the expression of the transcription factors. Transfection efficiency was determined using a β-galactosidase expression vector. Constructs used in these experiments included GAL4 fusions with the c-myc, Sp1 and VP16 activation domains (described in Whitmarsh et al., Science, 269:403 (1995); Davis, Science, 269:403 (1995); Gille et al., Curr. Biol., 5:1191 (1995)). Other constructs used were GAL4-c-Jun, in which GAL4 is fused to c-Jun; GAL4-c-Jun (S63A/S73A), in which GAL4 is fused to a mutant c-Jun in which the serines at positions 63 and 73 have been changed to alanines; GAL4-ATF2, in which GAL4 is fused to wild type ATF2 (ATF2(Thr-69, 71)); GAL4-ATF2 (T69A/T71A) (ATF2(Ala-69/71)), in which GAL4 has been fused to a mutant ATF2 in which the […] at positions 69 and 71 have been changed to alanines; GAL4-Elk-1, in which GAL4 has been fused to Elk-1; and GAL4-Elk-1 (S383A), in which GAL4 has been fused to a mutant Elk-1 in which the serine at position 383 has been changed to an alanine. Gupta et al., EMBO J, 15:2760-2770 (1996); Raingeaud et al., Mol. Cell. Biol., 16:1247-1255 (1996); Whitmarsh et al. Science, 269:403-407 (1995).
Insertional overlapping PCR, described in detail in Ho, supra, was used to construct expression vectors for the JNK binding domain (JBD; amino acid residues 127-281) of JIP-1 and for a mutant JIP-1 lacking the SH3 (amino acid residues 491-540) domain.
as §2

[2] = system: differentiated PC12 cells; assay: NGF withdrawal-induced apoptosis of differentiated PC12 cells; format: cell-based; conditions: pCDNA3-Flag-JIP-1 (residues 127-281) transfection; 17 hours following NGF withdrawal; FIG. 5
Description: The effect of JIP-1 on this biological response was investigated to determine whether JIP-1 inhibits the biological effects of the JNK signaling pathway. NGF withdrawal-induced apoptosis of differentiated PC12 cells was examined following transfection with the expression vectors pCDNA3 (control) and pCDNA3-Flag-JIP-1 (containing residues 127-281 of JIP-1) using methods described previously. Xia et al., Science, 270:1326 (1995). The percentage of apoptotic cells in the total transfected cell population was blind-scored and quantitated. This assay scores adherent cells with an apoptotic morphology at 17 hours following NGF withdrawal. Cells that have completed apoptosis are nonadherent and are not scored. Thus, while the cumulative extent of apoptosis is large (100%), lower numbers of apoptotic cells are detected at a single time point.

JNK = JNK activation by v-ABL or BCR-ABL in transfected 293 cells (immune complex kinase assay); format: cell-based; conditions: co-expression in 293 cells; GST-Jun substrate
Description: The BCR-ABL oncogene, which is associated with chronic myelogenous leukemia (CML), causes JNK activation in the absence of increased ERK activity. Raitano et al., Proc. Natl. Acad. Sci. USA, 92:11746 (1995). Oncogenic transformation by BCR-ABL may be mediated in part by the JNK signaling pathway. Since JIP-1 can inhibit JNK activity, the effect of JIP-1 expression on oncogenic transformation was examined. Plasmid vectors expressing v-ABL or BCR-ABL and Flag-tagged JBD (residues 127-281) of JIP-1 were used to transfect 293 cells. JNK activity was then measured in an immune complex kinase assay of lysates of the transfected 293 cells, using a polyclonal JNK antibody and GST-Jun as the substrate. […] JIP-1 can therefore inhibit BCR-ABL-mediated activation of JNK.

[3] = system: primary mouse marrow cells (pre-B cells); assay: Bone marrow transformation assay: pre-B cell transformation by BCR-ABL retrovirus; format: cell-based; conditions: bicistronic retrovirus, JBD in sense orientation (not anti-sense); day 10 post infection; FIG. 6
Protocol: To examine the effect of JIP-1 on BCR-ABL-mediated cellular transformation, bone marrow transformation assays were performed using recombinant retroviruses packaged with 293T cells as described in Sawyers et al., J. Exp. Med., 181:307 (1995). Bicistronic retroviruses expressing BCR-ABL, alone, or in combination with the Flag-tagged JBD (residues 127-281) of JIP-1, were prepared by subcloning p185BCR-ABL into the ClaI site of pSRαTK, downstream of the internal TK promoter, to create pSRαMSVTKp185. The JBD was subcloned into the upstream EcoRI site in the sense and antisense orientations.
The recombinant retroviruses were then used to infect primary mouse marrow cells, and the transformation of pre-B cells was monitored in culture. […] The data shown are derived from three independent experiments plated in triplicate. As expected, BCR-ABL caused pre-B cell transformation.

B1: JBD: JNK binding domain of JIP-1, residues 127-281, expressed (Flag-tagged) in cells (protein)
chain: PKAESNQDPAPRSQGQGPGTGSGDTYRPKRPTTLNLFPQVPRSQDTLNNNSLGKKHSWQDRVSRSSSPLKTGEQTPPHEHICLSDELPPQGSPVPTQDRGTSTDSPCRRSAATQMAPPSGPPATAPGGRGHSHRDRIHYQADVRLEATEEIYLTP
modifications: Flag tag
reporter gene expression mediated by c-Myc activation domain (c-Myc activation domain): did not inhibit
reporter gene expression mediated by E1a activation domain (E1a activation domain): did not inhibit
reporter gene expression mediated by Sp1 activation domain (Sp1 activation domain): did not inhibit
reporter gene expression mediated by VP16 activation domain (VP16 activation domain): did not inhibit
JNK-regulated gene expression [1]: inhibition
apoptosis following NGF-withdrawal [2]: markedly reduced
constitutive JNK activation caused by v-ABL and BCR-ABL (JNK): blocked
pre-B cell transformation by BCR-ABL [3]: marked inhibition
